Results taken from paper doi:10.1101/2025.08.03.668247, “The structure of Egalitarian in complex with the K10 mRNA localization signal reveals a modular binding surface required for function”.

Experiments:
Experiment in all cases: fluorescence anisotropy; FA: 20 mM HEPES-NaOH pH 7.5, 100 mM NaCl, 10% glycerol, 20 C, 10 nM FAM-RNA; competition: 150 nM Egl512-819 + 10 nM FAM-K10 TLS, same buffer
Conditions in all cases: protein: recombinant; tags: N-terminal GST; label: 5'-6-FAM; hairpin with two bulges
K751A = molecular target: T1, K751A (Drosophila melanogaster, UniProt Q9W1K4 512-819, K751A)
T1 sequence: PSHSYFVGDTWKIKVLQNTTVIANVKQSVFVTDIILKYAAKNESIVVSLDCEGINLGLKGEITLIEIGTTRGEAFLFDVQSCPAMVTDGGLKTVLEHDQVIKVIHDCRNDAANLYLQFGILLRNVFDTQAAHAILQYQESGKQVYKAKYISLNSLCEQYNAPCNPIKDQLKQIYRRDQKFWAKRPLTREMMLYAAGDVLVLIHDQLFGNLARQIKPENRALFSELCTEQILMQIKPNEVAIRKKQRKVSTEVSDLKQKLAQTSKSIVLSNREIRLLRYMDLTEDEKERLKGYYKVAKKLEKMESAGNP

K678A = molecular target: T2, K678A (Drosophila melanogaster, UniProt Q9W1K4 512-819, K678A)
T2 sequence: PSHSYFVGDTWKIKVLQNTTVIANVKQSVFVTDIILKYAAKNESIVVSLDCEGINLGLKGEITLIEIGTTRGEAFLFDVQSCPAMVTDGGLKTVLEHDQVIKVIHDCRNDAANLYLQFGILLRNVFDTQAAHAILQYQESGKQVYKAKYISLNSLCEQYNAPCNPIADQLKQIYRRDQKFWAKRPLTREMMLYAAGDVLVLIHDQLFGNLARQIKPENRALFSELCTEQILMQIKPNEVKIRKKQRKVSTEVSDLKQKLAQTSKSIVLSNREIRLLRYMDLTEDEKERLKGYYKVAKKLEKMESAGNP

L-Triple = molecular target: T3, L-Triple (Drosophila melanogaster, UniProt Q9W1K4 512-819, R753E;K754E;K755E)
T3 sequence: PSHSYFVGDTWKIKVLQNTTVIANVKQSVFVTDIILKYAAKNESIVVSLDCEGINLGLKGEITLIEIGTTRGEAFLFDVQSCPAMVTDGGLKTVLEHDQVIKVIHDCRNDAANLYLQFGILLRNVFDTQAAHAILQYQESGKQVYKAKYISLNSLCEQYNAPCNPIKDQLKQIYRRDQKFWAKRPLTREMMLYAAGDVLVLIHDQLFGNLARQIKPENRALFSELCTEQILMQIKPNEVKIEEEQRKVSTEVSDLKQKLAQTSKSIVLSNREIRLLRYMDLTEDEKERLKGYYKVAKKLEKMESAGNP

K659E = molecular target: T4, K659E (Drosophila melanogaster, UniProt Q9W1K4 512-819, K659E)
T4 sequence: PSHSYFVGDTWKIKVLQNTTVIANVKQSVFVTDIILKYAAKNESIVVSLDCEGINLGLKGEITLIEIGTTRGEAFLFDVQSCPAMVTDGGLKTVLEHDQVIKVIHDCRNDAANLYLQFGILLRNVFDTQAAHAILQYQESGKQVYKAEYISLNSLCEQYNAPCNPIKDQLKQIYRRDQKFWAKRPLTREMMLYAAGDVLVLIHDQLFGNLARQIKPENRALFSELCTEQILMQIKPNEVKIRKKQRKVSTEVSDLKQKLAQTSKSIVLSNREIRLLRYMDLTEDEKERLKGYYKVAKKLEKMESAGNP

R785E = molecular target: T5, R785E (Drosophila melanogaster, UniProt Q9W1K4 512-819, R785E)
T5 sequence: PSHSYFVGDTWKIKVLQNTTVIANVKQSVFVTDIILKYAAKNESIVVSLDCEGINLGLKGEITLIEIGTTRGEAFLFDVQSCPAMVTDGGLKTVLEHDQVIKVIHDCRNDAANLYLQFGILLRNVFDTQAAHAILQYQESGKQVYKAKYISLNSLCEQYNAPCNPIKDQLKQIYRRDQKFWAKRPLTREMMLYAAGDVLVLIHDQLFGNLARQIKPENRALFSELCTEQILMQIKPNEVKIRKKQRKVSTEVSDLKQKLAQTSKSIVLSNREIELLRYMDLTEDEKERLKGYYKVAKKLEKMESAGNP

Egl512-1004 = molecular target: T6, Egl512-1004 (Drosophila melanogaster, UniProt Q9W1K4 512-1004)
T6 sequence: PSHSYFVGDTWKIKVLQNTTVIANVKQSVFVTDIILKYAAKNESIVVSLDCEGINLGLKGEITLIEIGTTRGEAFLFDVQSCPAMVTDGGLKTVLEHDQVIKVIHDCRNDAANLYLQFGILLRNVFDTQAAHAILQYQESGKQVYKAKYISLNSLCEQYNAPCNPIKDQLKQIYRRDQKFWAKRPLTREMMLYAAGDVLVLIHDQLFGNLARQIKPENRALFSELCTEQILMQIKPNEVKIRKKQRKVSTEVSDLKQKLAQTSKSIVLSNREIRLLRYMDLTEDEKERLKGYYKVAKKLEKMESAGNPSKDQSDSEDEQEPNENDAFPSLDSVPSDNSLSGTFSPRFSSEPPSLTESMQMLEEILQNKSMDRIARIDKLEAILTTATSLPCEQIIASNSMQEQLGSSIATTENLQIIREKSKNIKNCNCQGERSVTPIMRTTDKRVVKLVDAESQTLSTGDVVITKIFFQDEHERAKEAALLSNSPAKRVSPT

In the case of CUUGAUUGUAUUUUUAAAUUAAUUCUUAAAAACUACAAAUUAAG (structured_RNA) [K10 TLS (FAM)], the Kd (K751A) is reported as 140 ± 10 nM, the Kd (K678A) is reported as 295 ± 8 nM and the Kd (L-Triple) is reported as 1460 ± 302 nM. It also gave a Kd (K659E) of 418 ± 40 nM, a Kd (R785E) of 210 ± 5 nM and a Kd (Egl512-1004) of 144 ± 6 nM.
